In the supplement of paper PMC11246515:
± gives the standard deviation of the averaged measurements.

Assay: total protein half-life in vivo (active degradation + dilution); higher = more stable protein
[1] = wild type E. coli NCM3722, growth: N-lim chemostat, doubling time 6 h
[2] = E. coli NCM3722 delta-clpP delta-lon delta-hslV, growth: N-lim chemostat, doubling time 6 h
[3] = E. coli NCM3722 delta-lon, growth: N-lim chemostat, doubling time 6 h
[4] = E. coli NCM3722 delta-smpB, growth: N-lim chemostat, doubling time 6 h
[5] = wild type E. coli NCM3722, growth: C-lim chemostat, doubling time 3 h
[6] = wild type E. coli NCM3722, growth: C-lim chemostat, doubling time 6 h
[7] = wild type E. coli NCM3722, growth: C-lim chemostat, doubling time 12 h
[8] = wild type E. coli NCM3722, growth: N-lim chemostat, doubling time 12 h
[9] = wild type E. coli NCM3722, growth: P-lim chemostat, doubling time 6 h
[10] = E. coli NCM3722 delta-clpP, growth: N-lim chemostat, doubling time 6 h
[11] = E. coli NCM3722 delta-hslV, growth: N-lim chemostat, doubling time 6 h
[12] = wild type E. coli NCM3722, growth: P-lim chemostat, doubling time 12 h

Sequence	total protein half-life in vivo [1] [h]	total protein half-life in vivo [2] [h]	total protein half-life in vivo [3] [h]	total protein half-life in vivo [4] [h]	total protein half-life in vivo [5] [h]	total protein half-life in vivo [6] [h]	total protein half-life in vivo [7] [h]	total protein half-life in vivo [8] [h]	total protein half-life in vivo [9] [h]	total protein half-life in vivo [10] [h]	total protein half-life in vivo [11] [h]	total protein half-life in vivo [12] [h]
MKRRLIIAASLFVFNLSSGFAAENIPFSPQPPEIHAGSWVLMDYTTGQILTAGNEHQQRNPASLTKLMTGYVVDRAIDSHRITPDDIVTVGRDAWAKDNPVFVGSSLMFLKEGDRVSVRDLSRGLIVDSGNDACVALADYIAGGQRQFVEMMNNYAEKLHLKDTHFETVHGLDAPGQHSSAYDLAVLSRAIIHGEPEFYHMYSEKSLTWNGITQQNRNGLLWDKTMNVDGLKTGHTSGAGFNLIASAVDGQRRLIAVVMGADSAKGREEEARKLLRWGQQNFTTVQILHRGKKVGTERIWYGDKENIDLGTEQEFWMVLPKAEIPHIKAKYTLDGKELTAPISAHQRVGEIELYDRDKQVAHWPLVTLESVGEGSMFSRLSDYFHHKA	7.4											
MKRTMLYLSLLAVSCSVSAAKYPVLTESSPEKAGFNVERLNQMDRWISQQVDVGYPSVNLLIIKDNQIVYRKAWGAAKKYDGSVLMEQPVKATTGTLYDLASNTKMYATNFALQKLMSEGKLHPDDRIAKYIPGFADSPNDTIKGKNTLRISDLLHHSGGFPADPQYPNKAVAGALYSQDKGQTLEMIKRTPLEYQPGSKHIYSDVDYMLLGFIVESVTGQPLDRYVEESIYRPLGLTHTVFNPLLKGFKPQQIAATELNGNTRDGVIHFPNIRTSTLWGQVHDEKAFYSMGGVSGHAGLFSNTGDIAVLMQTMLNGGGYGDVQLFNAETVKMFTTSSKEDATFGLGWRVNGNATMTPTFGTLASPQTYGHTGWTGTVTVIDPVNHMTIVMLSNKPHSPVADPQKNPNMFESGQLPIATYGWVVDQVYAALKQK	5.42 ± 0.84	6.01 ± 1.4	5.56 ± 0.55	5.13 ± 0.61	3.15 ± 0.17	6.3 ± 0.47	10.4 ± 1.3	11.2 ± 0.13	5.84 ± 0.99			
MKRVLFFLLMIFVSFGVIADCEIQAKDHDCFTIFAKGTIFSAFPVLNNKAMWRWYQNEDIGEYYWQTELGTCKNNKFTPSGARLLIRVGSLRLNENHAIKGTLQELINTAEKTAFLGDRFRSYIRAGIYQKKSSDPVQLLAVLDNSIMVKYFKDEKPTYARMTAHLPNKNESYECLIKIQHELIRSEEK		1.81		1.13			10.3	4.57				
MKRWPVFPRSLRQLVMLAFLLILLPLLVLAWQAWQSLNALSDQAALVNRTTLIDARRSEAMTNAALEMERSYRQYCVLDDPTLAKVYQSQRKRYSEMLDAHAGVLPDDKLYQALRQDLHNLAQLQCNNSGPDAAAAARLEAFASANTEMVQATRTVVFSRGQQLQREIAERGQYFGWQSLVLFLVSLVMVLLFTRMIIGPVKNIERMINRLGEGRSLGNSVSFSGPSELRSVGQRILWLSERLSWLESQRHQFLRHLSHELKTPLASMREGTELLADQVVGPLTPEQKEVVSILDSSSRNLQKLIEQLLDYNRKQADSAVELENVELAPLVETVVSAHSLPARAKMMHTDVDLKATACLAEPMLLMSVLDNLYSNAVHYGAESGNICLRSSLHGARVYIDVINTGTPIPQEERAMIFEPFFQGSHQRKGAVKGSGLGLSIARDCIRRMQGELYLVDESGQDVCFRIELPSSKNTK	6.16 ± 0.12	6.52 ± 0.67	6.41 ± 0.28		3.12 ± 0.098		10.8 ± 0.2	13.1 ± 1	6.8109 ± 0.0031	6.72 ± 0.21	6.56 ± 0.21	12.6 ± 0.89
MKSVLKVSLAALTLAFAVSSHAADKKLVVATDTAFVPFEFKQGDKYVGFDVDLWAAIAKELKLDYELKPMDFSGIIPALQTKNVDLALAGITITDERKKAIDFSDGYYKSGLLVMVKANNNDVKSVKDLDGKVVAVKSGTGSVDYAKANIKTKDLRQFPNIDNAYMELGTNRADAVLHDTPNILYFIKTAGNGQFKAVGDSLEAQQYGIAFPKGSDELRDKVNGALKTLRENGTYNEIYKKWFGTEPK [P0AEQ3]	6.43 ± 0.32	4.537 ± 0.04	6.824 ± 0.065	6.44 ± 0.68	3.38 ± 0.19	6.48 ± 0.26	11.8 ± 1.3	13.1 ± 0.91	6.13 ± 0.34	6.03 ± 2.1	6.84 ± 0.17	14.08 ± 0.14
MKTAKEYSDTAKREVSVDVDALLAAINEISESEVHRSQNDSEHVSVDGREYHTWRELADAFELDIHDFSVSEVNR		4.23 ± 0.73	0.678	0.551			1.38	1.03		1.58		
MKTALLLEKLEGQLATLRQRCAPVSQFATLSARFDRHLFQTRATTLQACLDEAGDNLAALRHAVEQQQLPQVAWLAEHLAAQLEAIAREASAWSLREWDSAPPKIARWQRKRIQHQDFERRLREMVAERRARLARVTDLVEQQTLHREVEAYEARLARCRHALEKIENRLARLTR	2.58 ± 0.12	4.68 ± 0.36	4.09 ± 0.54	2.21 ± 0.046	1.955 ± 0.0034	3.69 ± 0.51	6.06 ± 3.5	2.85 ± 0.6	2.92 ± 0.094	2.5 ± 0.12	2.39 ± 0.15	5.17 ± 0.34
MKTAYIAKQRQISFVKSHFSRQLEERLGLIEVQAPILSRVGDGTQDNLSGCEKAVQVKVKALPDAQFEVVHSLAKWKRQTLGQHDFSAGEGLYTHMKALRPDEDRLSPLHSVYVDQWDWERVMGDGERQFSTLKSTVEAIWAGIKATEAAVSEEFGLAPFLPDQIHFVHSQELLSRYPDLDAKGRERAIAKDLGAVFLVGIGGKLSDGHRHDVRAPDYDDWSTPSELGHAGLNGDILVWNPVLEDAFELSSMGIRVDADTLKHQLALTGDEDRLELEWHQALLRGEMPQTIGGGIGQSRLTMLLLQLPHIGQVQCGVWPAAVRESVPSLL	2.29 ± 0.19	2.59 ± 0.04		2.771 ± 0.0098	2.53 ± 0.085	2.9 ± 0.16	5.26 ± 0.4	4.02 ± 1	2.37 ± 0.58	4.18 ± 2.2	3.06 ± 0.71	5.24 ± 1.9
MKTINTVVAAMALSTLSFGVFAAEPVTASQAQNMNKIGVVSADGASTLDALEAKLAEKAAAAGASGYSITSATNNNKLSGTAVIYK [P0AAX3]				0.346								
MKTKIPDAVLAAEVSRRGLVKTTAIGGLAMASSALTLPFSRIAHAVDSAIPTKSDEKVIWSACTVNCGSRCPLRMHVVDGEIKYVETDNTGDDNYDGLHQVRACLRGRSMRRRVYNPDRLKYPMKRVGARGEGKFERISWEEAYDIIATNMQRLIKEYGNESIYLNYGTGTLGGTMTRSWPPGNTLVARLMNCCGGYLNHYGDYSSAQIAEGLNYTYGGWADGNSPSDIENSKLVVLFGNNPGETRMSGGGVTYYLEQARQKSNARMIIIDPRYTDTGAGREDEWIPIRPGTDAALVNGLAYVMITENLVDQAFLDKYCVGYDEKTLPASAPKNGHYKAYILGEGPDGVAKTPEWASQITGVPADKIIKLAREIGSTKPAFISQGWGPQRHANGEIATRAISMLAILTGNVGINGGNSGAREGSYSLPFVRMPTLENPIQTSISMFMWTDAIERGPEMTALRDGVRGKDKLDVPIKMIWNYAGNCLINQHSEINRTHEILQDDKKCELIVVIDCHMTSSAKYADILLPDCTASEQMDFALDASCGNMSYVIFNDQVIKPRFECKTIYEMTSELAKRLGVEQQFTEGRTQEEWMRHLYAQSREAIPELPTFEEFRKQGIFKKRDPQGHHVAYKAFREDPQANPLTTPSGKIEIYSQALADIAATWELPEGDVIDPLPIYTPGFESYQDPLNKQYPLQLTGFHYKSRVHSTYGNVDVLKAACRQEMWINPLDAQKRGIHNGDKVRIFNDRGEVHIEAKVTPRMMPGVVALGEGAWYDPDAKRVDKGGCINVLTTQRPSPLAKGNPSHTNLVQVEKV		5.175 ± 0.011				5.91		6.94				
MKTKLMTLQDATGFFRDGMTIMVGGFMGIGTPSRLVEALLESGVRDLTLIANDTAFVDTGIGPLIVNGRVRKVIASHIGTNPETGRRMISGEMDVVLVPQGTLIEQIRCGGAGLGGFLTPTGVGTVVEEGKQTLTLDGKTWLLERPLRADLALIRAHRCDTLGNLTYQLSARNFNPLIALAADITLVEPDELVETGELQPDHIVTPGAVIDHIIVSQESK							8.54					
MKTLIRKFSRTAITVVLVILAFIAIFNAWVYYTESPWTRDARFSADVVAIAPDVSGLITQVNVHDNQLVKKGQILFTIDQPRYQKALEEAQADVAYYQVLAQEKRQEAGRRNRLGVQAMSREEIDQANNVLQTVLHQLAKAQATRDLAKLDLERTVIRAPADGWVTNLNVYTGEFITRGSTAVALVKQNSFYVLAYMEETKLEGVRPGYRAEITPLGSNKVLKGTVDSVAAGVTNASSTRDDKGMATIDSNLEWVRLAQRVPVRIRLDNQQENIWPAGTTATVVVTGKQDRDESQDSFFRKMAHRLREFG										5.51		
MKTLIVSTVLAFITFSAQAAAFQVTSNEIKTGEQLTTSHVFSGFGCEGGNTSPSLTWSGVPEGTKSFAVTVYDPDAPTGSGWWHWTVVNIPATVTYLPVDAGRRDGTKLPTGAVQGRNDFGYAGFGGACPPKGDKPHHYQFKVWALKTEKIPVDSNSSGALVGYMLNANKIATAEITPVYEIK	6.15 ± 0.075	4.45 ± 0.4	5.18 ± 0.93	5.046 ± 0.013	2.24 ± 0.28	3.37	7.12 ± 3.5	10.9 ± 0.48	6.28 ± 1.6	4.74 ± 0.75		10.3 ± 1.9
MKTLLIIDANLGQARAYMAKTLLGAAARKAKLEIIDNPNDAEMAIVLGDSIPNDSALNGKNVWLGDISRAVAHPELFLSEAKGHAKPYTAPVAATAPVAASGPKRVVAVTACPTGVAHTFMAAEAIETEAKKRGWWVKVETRGSVGAGNAITPEEVAAADLVIVAADIEVDLAKFAGKPMYRTSTGLALKKTAQELDKAVAEATPYEPAGKAQTATTESKKESAGAYRHLLTGVSYMLPMVVAGGLCIALSFAFGIEAFKEPGTLAAALMQIGGGSAFALMVPVLAGYIAFSIADRPGLTPGLIGGMLAVSTGSGFIGGIIAGFLAGYIAKLISTQLKLPQSMEALKPILIIPLISSLVVGLAMIYLIGKPVAGILEGLTHWLQTMGTANAVLLGAILGGMMCTDMGGPVNKAAYAFGVGLLSTQTYGPMAAIMAAGMVPPLAMGLATMVARRKFDKAQQEGGKAALVLGLCFISEGAIPFAARDPMRVLPCCIVGGALTGAISMAIGAKLMAPHGGLFVLLIPGAITPVLGYLVAIIAGTLVAGLAYAFLKRPEVDAVAKAA	5.89 ± 0.44	6.73 ± 0.62	5.76 ± 0.27	5.89 ± 0.43	3.54 ± 0.33	6.11 ± 0.28	13.4 ± 0.7	11.6 ± 0.25	6.29 ± 0.29		5.956 ± 0.014	11.9 ± 0.6
MKTLNRRDFPGAQYPERIIQFGEGNFLRAFVDWQIDLLNEHTDLNSGVVVVRPIETSFPPSLSTQDGLYTTIIRGLNEKGEAVSDARLIRSVNREISVYSEYDEFLKLAHNPEMRFVFSNTTEAGISYHAGDKFDDAPAVSYPAKLTRLLFERFSHFNGALDKGWIIIPCELIDYNGDALRELVLRYAQEWALPEAFIQWLDQANSFCSTLVDRIVTGYPRDEVAKLEEELGYHDGFLDTAEHFYLFVIQGPKSLATELRLDKYPLNVLIVDDIKPYKERKVAILNGAHTALVPVAFQAGLDTVGEAMNDAEICAFVEKAIYEEIIPVLDLPRDELESFASAVTGRFRNPYIKHQLLSIALNGMTKFRTRILPQLLAGQKANGTLPARLTFALAALIAFYRGERNGETYPVQDDAHWLERYQQLWSQHRDRVIGTQELVAIVLAEKDHWEQDLTQVPGLVEQVANDLDAILEKGMREAVRPLC [P0A6L7]					3.15 ± 0.18	4.58 ± 0.071	8.15 ± 1.3		5.26 ± 0.51			
